According to patent publication US20220332804A1 (CSL INNOVATION, published 2022):
Where a chain is given by its changes, count along the chain named.

Experiments:
Test in all cases: SPR, antibody captured, C2 as analyte;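 further: biacore SPR at 37 °C, anti-C2 mAbs captured via goat anti-human IgG on CM5 chips, double-referenced sensorgrams fit to a 1:1 kinetic or steady-state model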
[1] = target: T1, human C2 Y328A (human, UniProt P06681 21-752)
T1 sequence: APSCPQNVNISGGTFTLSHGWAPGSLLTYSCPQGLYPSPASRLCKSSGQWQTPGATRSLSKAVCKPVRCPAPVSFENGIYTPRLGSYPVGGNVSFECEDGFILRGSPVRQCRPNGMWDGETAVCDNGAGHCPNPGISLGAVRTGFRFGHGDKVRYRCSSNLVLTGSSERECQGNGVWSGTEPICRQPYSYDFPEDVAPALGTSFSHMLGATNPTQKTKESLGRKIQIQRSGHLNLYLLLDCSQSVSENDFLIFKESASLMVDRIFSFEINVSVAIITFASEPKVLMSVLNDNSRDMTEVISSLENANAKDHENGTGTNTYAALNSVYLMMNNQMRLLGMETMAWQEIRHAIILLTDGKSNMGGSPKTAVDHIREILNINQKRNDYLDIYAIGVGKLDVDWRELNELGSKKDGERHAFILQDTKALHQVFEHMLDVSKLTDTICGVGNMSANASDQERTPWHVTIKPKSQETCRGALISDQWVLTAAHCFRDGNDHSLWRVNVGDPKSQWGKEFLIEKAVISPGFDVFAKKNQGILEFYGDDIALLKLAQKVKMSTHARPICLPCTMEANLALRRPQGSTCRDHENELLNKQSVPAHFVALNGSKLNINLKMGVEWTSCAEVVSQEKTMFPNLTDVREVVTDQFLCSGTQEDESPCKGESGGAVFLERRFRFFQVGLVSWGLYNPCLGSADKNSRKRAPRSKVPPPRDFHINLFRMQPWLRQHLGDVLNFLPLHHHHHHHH
Method: (§1) Surface plasmon resonance (SPR, Biacore) was used for all binding affinity analyses. In brief, goat anti-human IgG was directly immobilised onto the carboxymethyl dextran surface of CM5 sensorchips to approximately 12,000 RU using standard NHS/EDC chemistry at pH 5. The immobilised antibody surface was pre-conditioned with ten injections of polyclonal human IgG (Privigen 60 s) prepared at 1 μg/mL. Ligands (anti-C2 mAbs) were captured at the beginning of each cycle as described below. An adjacent spot or flow cell in which only Polyclonal IgG was capture was used as a reference surface. The goat anti-human IgG Fc antibody surface was regenerate in 100 mM H3PO4, injected for 45 seconds at the end of each cycle. Experiments were performed at 37° C. and the flow rate of each experiment was kept constant at 30 μL/min.
(§2) Sensogram data was double-referenced against a reference anti-IgG surface (i.e. minus anti-C2 mAb) and blank buffer injections obtained within each experiment. The binding data was fit to 1:1 (kinetic or steady-state) model using local Rmax and null refraction index (RI=0) when appropriate. Buffers and solutions were filtered (0.22 μm) prior to use.

[2] = target: T2, human C2 G432A (human, UniProt P06681 21-752)
T2 sequence: T1 sequence with A308Y, G412A
Method: as §1, §2

[3] = target: T3, human C2 T442A (human, UniProt P06681 21-752)
T3 sequence: T1 sequence with A308Y, T422A
Method: as §1, §2

[4] = target: T4, human C2 Q489A (human, UniProt P06681 21-752)
T4 sequence: T1 sequence with A308Y, Q469A
Method: as §1, §2

B1: RF16-226 (antibody, human IgG4 S228P, lambda)
heavy: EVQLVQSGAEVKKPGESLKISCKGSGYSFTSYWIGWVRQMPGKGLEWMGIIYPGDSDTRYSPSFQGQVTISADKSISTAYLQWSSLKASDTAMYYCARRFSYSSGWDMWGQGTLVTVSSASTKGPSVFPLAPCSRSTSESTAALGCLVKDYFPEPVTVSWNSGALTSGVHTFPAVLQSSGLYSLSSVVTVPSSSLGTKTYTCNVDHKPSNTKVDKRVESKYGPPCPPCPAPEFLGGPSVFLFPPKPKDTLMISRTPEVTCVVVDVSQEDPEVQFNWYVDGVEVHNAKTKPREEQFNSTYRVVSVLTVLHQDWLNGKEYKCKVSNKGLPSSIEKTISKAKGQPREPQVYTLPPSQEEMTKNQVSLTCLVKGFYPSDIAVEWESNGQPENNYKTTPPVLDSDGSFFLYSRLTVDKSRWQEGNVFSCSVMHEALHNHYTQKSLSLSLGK
light: SYELTQPPSVSVSPGQTARITCSGDALTSKYVAWYQQKSGLAPLLVIYEDTRRPSGIPAKFSGSSSGSVATLTISGAHGDDEADYYCYSTDASGHQRVFGGGTKLTVLSQPKAAPSVTLFPPSSEELQANKATLVCLISDFYPGAVTVAWKADGSPVKAGVETTKPSKQSNNKYAASSYLSLTPEQWKSHRSYSCQVTHEGSTVEKTVAPTECS
notes: pH-dependent anti-C2 antibody from a phage display library; also called WT
In the case of B1, the Kd [1] is reported as 78.4 nM, the Kd [2] is reported as 6.6 nM and the Kd [3] is reported as 23.7 nM. It also gave a Kd [4] of 104 nM.
